The values below come from paper PMC11394972 (International Journal of Molecular Sciences, 2024).

The labels stand for the following.
B1: MazF-mt3 (tag-removed form used for crystallization) (enzyme)
chain: GPELMVISRAEIYWADLGPPSGSQPAKRRPVLVIQSDPYNASRLATVIAAVITSNTALAAMPGNVFLPATTTRLPRDSVVNVTAIVTLNKTDLTDRVGEVPASLMHEVDRGLRRVLDL

The data set “crystal structure” concerns the molecule itself. As to the kind of experiment: crystal structure.
The target of data set [1] is B1. As to the kind of experiment: crystal structure. The note with it: both partners purified.

As for B1, the “stoichiometry N” value in the data set “crystal structure” worked out at 2 subunits in the oligomer.

B2: MazE-mt3 (Leu46-Trp82) peptide (peptide)
peptide: LTGQIDRALESIHGTDEAEALAVANAYRVLETMDDEW
As for B2, the “stoichiometry N” value in data set [1] was 2 toxin chains per antitoxin chain.

What is called stoichiometry N is a count of units in the complex or per binding partner.
